Measured values: patent publication US10159707B2, “Treatment of cancers with immunostimulatory HIV Tat derivative polypeptides” (PIN Pharma, Inc., priority 2013, dated 2018)
Entries after “also recorded” stand apart in the source; their conditions may differ.

Experiments:
4T1 cells = assay: Repeated dosing of Nani-P2 and cyclophosphamide in 4T1 tumor-bearing mice; type: in vivo, mouse; conditions: cyclophosphamide 80 mg/kg IP weekly from day 10
Protocol: Four groups of 10 BALB/c mice were implanted with 1×10^4 4 T1 cells SC into the mammary fat pad. Treatment was initiated when tumor diameters reached 4-5 mm, on day 10. Control mice were injected IV with PBS at 3 days intervals, while alternating treatment mice received 3 doses of drug every 3 days in rotating 10 day cycles. Tumor burden (tumor size mm^3) was calculated using a standard formula. CY (cyclophosphamide alone) mice were injected IP weekly with 80 mg/kg per mouse beginning on day 10. Cy/Nani-P2 (cyclophosphamide first followed by Nani-P2) mice were first injected IP with cyclophosphamide (80 mg/kg) at 3 days intervals for three doses starting at day 10 and then injected IV with Nani-P2 (40 ng) at 3 days intervals for three doses in rotation. The cycle of 3 doses of CY followed by 3 doses of Nani-P2 was repeated until day 50. Nani-P2/CY (Nani-P2 first followed by cyclophosphamide) mice were first injected IV with Nani-P2 (40 ng) at 3 day intervals for 3 doses starting on day 10 and then injected i.p. with cyclophosphamide at 3 day intervals in rotation. The cycle of 3 doses of Nani-P2 followed by 3 doses of CY was repeated until day 50.

4T1 breast tumor = assay: 4T1 primary breast tumor growth in BALB/c mice; type: in vivo, mouse; conditions: 400 ng partially-purified, SC, days 0, 7, 14, 21 (Nani-P3 also 2 μg); from day 15, p<0.05
Protocol: BALB/c mice were injected (SC) with 1×10^4 4 T1, 1×10^5 TS/A or 2×10^5 SM1 cells, respectively, in the left mammary pad on day 0. […] The control group received PBS injection. […] Tumor burden (tumor volume) was measured and recorded three times weekly. Animals were sacrificed when tumors reached a volume of 15 mm in diameter and the tumors harvested and weighed.
The therapeutic effect of systemic administration of synthetic, Tat-derived compositions in murine models of breast cancer was investigated. […]

Molecule | mice dead by day 42 (4T1 cells) | 4T1 tumor burden versus PBS control (4T1 breast tumor)
O=P1(N(CCCl)CCCl)NCCCO1 (stereo not drawn) [cyclophosphamide, reference compound] | 10/10 | 
Nani-P3: Tat derivative polypeptide SEQ ID NO:4; TF SIVsmm, cysteine-rich murine βdefensin, C-terminal HIV-1 (protein, Tat derivative polypeptide) METPLKEQENSLESCREHSSSISEVDVPTPVSCLRKGGRCWNRCIGNTRQIGSCGVPFLKCCKRKPFTRKGLGISYGRKKRRQRRRAPQDSQTHQASLSKQPASQSRGDPTGPTESKKKVERETETDPFD |  | less effective at suppressing 4T1 primary tumor growth; also recorded: no difference
Nani-P1: Tat derivative polypeptide SEQ ID NO:2; TF HIV-1, cysteine-rich HIV-1, C-terminal HIV-1 (protein, Tat derivative polypeptide) MEPVDANLEAWKHAGSQPRKTACTTCYCKKCCFHCQVCFTRKGLGISYGRKKRRQRRRAPQDSQTHQASLSKQPASQSRGDPTGPTESKKKVERETETDPFD |  | significantly reduced tumor burden; also recorded: significant
